Reference: patent publication US20230158141A1 (YAFEI SHANGHAI BIOLOG MEDICINE SCIENCE AND TECHNOLOGY, published 2023)
Residue numbers refer to the chain shown, from its start.

T1: IL-10R1-Fc (UniProt Q13651 22-235, limits assumed)
T1 sequence (looked up): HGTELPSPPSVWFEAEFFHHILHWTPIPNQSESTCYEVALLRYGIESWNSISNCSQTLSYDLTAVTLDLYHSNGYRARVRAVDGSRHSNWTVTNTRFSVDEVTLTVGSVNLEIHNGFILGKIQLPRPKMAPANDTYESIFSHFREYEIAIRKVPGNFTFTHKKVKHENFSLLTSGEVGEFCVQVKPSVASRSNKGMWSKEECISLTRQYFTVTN

B1: IL-10 Thr6Cys-R4-7 (ligand, human, UniProt P22301 19-178, looked up)
chain: SPGQGCQSENSCTHFPGNLPNMLRDLRDAFSRVKTFFQMKDQLDNLLLKESLLEDFKGYLGCQALSEMIQFYLEEVMPQAENQDPDIKAHVNSLGENLKTLRLRLRRCHRFLPCENKSKAVEQVKNAFNKLQEKGIYKAMSEFDIFINYIEAYMTMKIRN
modifications: R4-7 on Cys 6
notes: mature
B2: IL-10 Gly135Cys-R4-1 (ligand, human, UniProt P22301 19-178, looked up)
chain: B1 chain with C6T, G135C
modifications: R4-1 on Cys 135
notes: mature
B3: IL-10 Leu48Cys-R4-7 (ligand, human, UniProt P22301 19-178, looked up)
chain: B1 chain with C6T, L48C
modifications: R4-7 on Cys 48
notes: mature
B4: IL-10 Leu46Cys-S48 (ligand, human, UniProt P22301 19-178, looked up)
chain: B1 chain with C6T, L46C
modifications: S48 on Cys 46
notes: mature
B5: IL-10 Glu50Cys-R4-12 (ligand, human, UniProt P22301 19-178, looked up)
chain: B1 chain with C6T, E50C
modifications: R4-12 on Cys 50
notes: mature
B6: IL-10 Ile158Cys-S48 (ligand, human, UniProt P22301 19-178, looked up)
chain: B1 chain with C6T, I158C
modifications: S48 on Cys 158
notes: mature
B7: IL-10 Asn45Cys-R4-18 (ligand, human, UniProt P22301 19-178, looked up)
chain: B1 chain with C6T, N45C
modifications: R4-18 on Cys 45
notes: mature
B8: IL-10 Leu105Cys-R4-6 (ligand, human, UniProt P22301 19-178, looked up)
chain: B1 chain with C6T, L105C
modifications: R4-6 on Cys 105
notes: mature
B9: IL-10 Leu105Cys-S48 (ligand, human, UniProt P22301 19-178, looked up)
chain: B1 chain with C6T, L105C
modifications: S48 on Cys 105
notes: mature
B10: IL-10 Leu26Cys-S48 (ligand, human, UniProt P22301 19-178, looked up)
chain: B1 chain with C6T, L26C
modifications: S48 on Cys 26
notes: mature
B11: IL-10 Asp144Cys-R4-11 (ligand, human, UniProt P22301 19-178, looked up)
chain: B1 chain with C6T, D144C
modifications: R4-11 on Cys 144
notes: mature
B12: IL-10 Asp41Cys-S48 (ligand, human, UniProt P22301 19-178, looked up)
chain: B1 chain with C6T, D41C
modifications: S48 on Cys 41
notes: mature
B13: IL-10 Leu94Cys-R4-6 (ligand, human, UniProt P22301 19-178, looked up)
chain: B1 chain with C6T, L94C
modifications: R4-6 on Cys 94
notes: mature
B14: IL-10 Asn148Cys-R4-18 (ligand, human, UniProt P22301 19-178, looked up)
chain: B1 chain with C6T, N148C
modifications: R4-18 (printed R418) on Cys 148
notes: mature
B15: IL-10 Gly17Cys-S48 (ligand, human, UniProt P22301 19-178, looked up)
chain: B1 chain with C6T, G17C
modifications: S48 on Cys 17
notes: mature
B16: IL-10 Leu46Cys-R4-6 (ligand, human, UniProt P22301 19-178, looked up)
chain: B1 chain with C6T, L46C
modifications: R4-6 on Cys 46
notes: mature
B17: IL-10 Gln42Cys-S48 (ligand, human, UniProt P22301 19-178, looked up)
chain: B1 chain with C6T, Q42C
modifications: S48 on Cys 42
notes: mature
B18: IL-10 Asn45Cys-S48 (ligand, human, UniProt P22301 19-178, looked up)
chain: B1 chain with C6T, N45C
modifications: S48 on Cys 45
notes: mature
B19: IL-10 Ile69Cys-S48 (ligand, human, UniProt P22301 19-178, looked up)
chain: B1 chain with C6T, I69C
modifications: S48 on Cys 69
notes: mature
B20: IL-10 Glu151Cys-S48 (ligand, human, UniProt P22301 19-178, looked up)
chain: B1 chain with C6T, E151C
modifications: S48 on Cys 151
notes: mature
B21: IL-10 Leu23Cys-R4-6 (ligand, human, UniProt P22301 19-178, looked up)
chain: B1 chain with C6T, L23C
modifications: R4-6 on Cys 23
notes: mature
B22: IL-10 Leu48Cys-S48 (ligand, human, UniProt P22301 19-178, looked up)
chain: B1 chain with C6T, L48C
modifications: S48 on Cys 48
notes: mature
B23: IL-10 Leu53Cys-R4-6 (ligand, human, UniProt P22301 19-178, looked up)
chain: B1 chain with C6T, L53C
modifications: R4-6 on Cys 53
notes: mature
B24: IL-10 Asn148Cys-S48 (ligand, human, UniProt P22301 19-178, looked up)
chain: B1 chain with C6T, N148C
modifications: S48 on Cys 148
notes: mature
B25: IL-10 Glu142Cys-S48 (ligand, human, UniProt P22301 19-178, looked up)
chain: B1 chain with C6T, E142C
modifications: S48 on Cys 142
notes: mature
B26: IL-10 Arg27Cys-S48 (ligand, human, UniProt P22301 19-178, looked up)
chain: B1 chain with C6T, R27C
modifications: S48 on Cys 27
notes: mature
B27: IL-10 Leu19Cys-R4-7 (ligand, human, UniProt P22301 19-178, looked up)
chain: B1 chain with C6T, L19C
modifications: R4-7 on Cys 19
notes: mature
B28: IL-10 Leu53Cys-S48 (ligand, human, UniProt P22301 19-178, looked up)
chain: B1 chain with C6T, L53C
modifications: S48 on Cys 53
notes: mature
B29: IL-10 Gly135Cys-S48 (ligand, human, UniProt P22301 19-178, looked up)
chain: B1 chain with C6T, G135C
modifications: S48 on Cys 135
notes: mature
B30: IL-10 Leu23Cys-S48 (ligand, human, UniProt P22301 19-178, looked up)
chain: B1 chain with C6T, L23C
modifications: S48 on Cys 23
notes: mature
B31: IL-10 Gly17Cys-R4-1 (ligand, human, UniProt P22301 19-178, looked up)
chain: B1 chain with C6T, G17C
modifications: R4-1 on Cys 17
notes: mature
B32: IL-10 Gln42Cys-R4-19 (ligand, human, UniProt P22301 19-178, looked up)
chain: B1 chain with C6T, Q42C
modifications: R4-19 on Cys 42
notes: mature
B33: IL-10 Arg27Cys-R4-20 (ligand, human, UniProt P22301 19-178, looked up)
chain: B1 chain with C6T, R27C
modifications: R4-20 on Cys 27
notes: mature
B34: IL-10 Asp41Cys-R4-11 (ligand, human, UniProt P22301 19-178, looked up)
chain: B1 chain with C6T, D41C
modifications: R4-11 on Cys 41
notes: mature
B35: IL-10 Asp28Cys-S48 (ligand, human, UniProt P22301 19-178, looked up)
chain: B1 chain with C6T, D28C
modifications: S48 on Cys 28
notes: mature
B36: IL-10 Leu94Cys-S48 (ligand, human, UniProt P22301 19-178, looked up)
chain: B1 chain with C6T, L94C
modifications: S48 on Cys 94
notes: mature
B37: IL-10 Leu19Cys-S48 (ligand, human, UniProt P22301 19-178, looked up)
chain: B1 chain with C6T, L19C
modifications: S48 on Cys 19
notes: mature
B38: IL-10 Glu50Cys-S48 (ligand, human, UniProt P22301 19-178, looked up)
chain: B1 chain with C6T, E50C
modifications: S48 on Cys 50
notes: mature
B39: IL-10 Asp144Cys-S48 (ligand, human, UniProt P22301 19-178, looked up)
chain: B1 chain with C6T, D144C
modifications: S48 on Cys 144
notes: mature
B40: IL-10 Glu151Cys-R4-12 (ligand, human, UniProt P22301 19-178, looked up)
chain: B1 chain with C6T, E151C
modifications: R4-12 on Cys 151
notes: mature
B41: IL-10 Asp44Cys-S48 (ligand, human, UniProt P22301 19-178, looked up)
chain: B1 chain with C6T, D44C
modifications: S48 on Cys 44
notes: mature
B42: IL-10 Ile158Cys-R4-6 (ligand, human, UniProt P22301 19-178, looked up)
chain: B1 chain with C6T, I158C
modifications: R4-6 on Cys 158
notes: mature
B43: IL-10 Arg159Cys-R4-20 (ligand, human, UniProt P22301 19-178, looked up)
chain: B1 chain with C6T, R159C
modifications: R4-20 on Cys 159
notes: mature
B44: IL-10 Leu26Cys-R4-6 (ligand, human, UniProt P22301 19-178, looked up)
chain: B1 chain with C6T, L26C
modifications: R4-6 on Cys 26
notes: mature
B45: IL-10 Glu142Cys-R4-12 (ligand, human, UniProt P22301 19-178, looked up)
chain: B1 chain with C6T, E142C
modifications: R4-12 on Cys 142
notes: mature
B46: IL-10 Leu65Cys-R4-6 (ligand, human, UniProt P22301 19-178, looked up)
chain: B1 chain with C6T, L65C
modifications: R4-6 on Cys 65
notes: mature
B47: IL-10 Ile69Cys-R4-6 (ligand, human, UniProt P22301 19-178, looked up)
chain: B1 chain with C6T, I69C
modifications: R4-6 on Cys 69
notes: mature
B48: IL-10 Gln38Cys-S48 (ligand, human, UniProt P22301 19-178, looked up)
chain: B1 chain with C6T, Q38C
modifications: S48 on Cys 38
notes: mature
B49: IL-10 Leu65Cys-S48 (ligand, human, UniProt P22301 19-178, looked up)
chain: B1 chain with C6T, L65C
modifications: S48 on Cys 65
notes: mature
B50: IL-10 Gln38Cys-R4-19 (ligand, human, UniProt P22301 19-178, looked up)
chain: B1 chain with C6T, Q38C
modifications: R4-19 on Cys 38
notes: mature
B51: IL-10 Arg159Cys-S48 (ligand, human, UniProt P22301 19-178, looked up)
chain: B1 chain with C6T, R159C
modifications: S48 on Cys 159
notes: mature
B52: IL-10 Asp25Cys-R4-12 (ligand, human, UniProt P22301 19-178, looked up)
chain: B1 chain with C6T, D25C
modifications: R4-12 on Cys 25
notes: mature
B53: IL-10 Leu131Cys-R4-6 (ligand, human, UniProt P22301 19-178, looked up)
chain: B1 chain with C6T, L131C
modifications: R4-6 on Cys 131
notes: mature
B54: IL-10 Asp44Cys-R4-11 (ligand, human, UniProt P22301 19-178, looked up)
chain: B1 chain with C6T, D44C
modifications: R4-11 on Cys 44
notes: mature
B55: IL-10 Asp28Cys-R4-11 (ligand, human, UniProt P22301 19-178, looked up)
chain: B1 chain with C6T, D28C
modifications: R4-11 on Cys 28
notes: mature

What follows are binders tested against T1, IL-10R1-Fc (assay: ELISA, IL-10R1-Fc coated).

Binding recovery (>60%) [%]	Decreased fold of binding to ligand after Conjugating with S48 [fold]	Binder
101	–	B1
99.5	–	B2
98.9	–	B3
–	22	B4
99.8	–	B5
–	9	B6
97.7	–	B7
92.3	–	B8
–	5	B9
–	3	B10
90.5	–	B11
–	13	B12
88.4	–	B13
84.3	–	B14
–	15	B15
89.6	–	B16
–	18	B17
–	7	B18
–	3	B19
–	13	B20
101	–	B21
–	3	B22
99.4	–	B23
–	10	B24
–	13	B25
–	12	B26
95.3	–	B27
–	3	B28

Binding recovery (>60%) [%]	Decreased fold of binding to ligand after Conjugating with S48 [fold]	Binder
–	3	B29
–	12	B30
90.2	–	B31
90	–	B32
86.6	–	B33
95.2	–	B34
–	30	B35
–	5	B36
–	8	B37
–	4	B38
–	15	B39
82.5	–	B40
–	43	B41
81.7	–	B42
99	–	B43
93.4	–	B44
78	–	B45
92.3	–	B46
97.3	–	B47
–	52	B48
–	3	B49
87	–	B50
–	3	B51
97.1	–	B52
98.5	–	B53
92.1	–	B54
92.3	–	B55
